Columns and labels:
[1] = target: class Ia RNR small subunit (Escherichia coli) (UniProt P69924); details: cited from earlier work
[2] = target: class Ia RNR small subunit (Homo sapiens) (UniProt P31350); details: cited from earlier work
[3] = target: T1, Bacillus subtilis class Ib ribonucleotide reductase NrdE (α subunit) (Bacillus subtilis, UniProt P50620 1-700); experiment: SEC
T1 sequence (looked up): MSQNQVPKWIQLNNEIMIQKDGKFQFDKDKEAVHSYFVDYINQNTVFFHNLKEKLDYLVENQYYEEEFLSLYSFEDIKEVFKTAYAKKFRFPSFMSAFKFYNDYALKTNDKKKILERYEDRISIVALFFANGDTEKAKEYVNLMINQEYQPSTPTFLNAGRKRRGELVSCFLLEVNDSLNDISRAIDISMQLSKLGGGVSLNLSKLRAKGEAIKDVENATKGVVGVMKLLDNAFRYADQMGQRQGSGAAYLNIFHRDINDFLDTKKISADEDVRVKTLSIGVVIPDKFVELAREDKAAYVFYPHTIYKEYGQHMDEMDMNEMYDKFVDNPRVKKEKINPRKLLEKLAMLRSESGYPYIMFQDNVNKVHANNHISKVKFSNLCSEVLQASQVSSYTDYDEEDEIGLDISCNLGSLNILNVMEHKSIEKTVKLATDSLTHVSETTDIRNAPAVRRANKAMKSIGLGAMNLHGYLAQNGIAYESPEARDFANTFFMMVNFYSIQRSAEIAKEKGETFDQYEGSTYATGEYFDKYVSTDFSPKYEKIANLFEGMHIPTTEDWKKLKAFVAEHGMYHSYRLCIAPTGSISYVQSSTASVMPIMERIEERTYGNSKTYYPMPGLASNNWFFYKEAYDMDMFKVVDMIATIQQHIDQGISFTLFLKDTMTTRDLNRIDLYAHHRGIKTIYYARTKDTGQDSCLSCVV

SEC = target: the molecule itself; experiment: SEC
AUC = target: the molecule itself; experiment: AUC

Sequence of class Ia RNR small subunit (Homo sapiens) (P31350 whole entry): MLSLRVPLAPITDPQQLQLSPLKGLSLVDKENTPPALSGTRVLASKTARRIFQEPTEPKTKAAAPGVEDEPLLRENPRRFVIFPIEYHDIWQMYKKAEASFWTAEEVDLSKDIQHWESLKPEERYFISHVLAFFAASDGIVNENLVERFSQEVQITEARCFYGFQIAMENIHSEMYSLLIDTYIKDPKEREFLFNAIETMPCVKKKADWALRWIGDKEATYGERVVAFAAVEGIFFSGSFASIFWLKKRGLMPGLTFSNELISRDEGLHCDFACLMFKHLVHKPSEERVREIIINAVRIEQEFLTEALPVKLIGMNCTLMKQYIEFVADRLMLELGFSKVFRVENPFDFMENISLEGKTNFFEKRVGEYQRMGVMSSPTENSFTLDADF
Sequence of class Ia RNR small subunit (Escherichia coli) (P69924 2-376): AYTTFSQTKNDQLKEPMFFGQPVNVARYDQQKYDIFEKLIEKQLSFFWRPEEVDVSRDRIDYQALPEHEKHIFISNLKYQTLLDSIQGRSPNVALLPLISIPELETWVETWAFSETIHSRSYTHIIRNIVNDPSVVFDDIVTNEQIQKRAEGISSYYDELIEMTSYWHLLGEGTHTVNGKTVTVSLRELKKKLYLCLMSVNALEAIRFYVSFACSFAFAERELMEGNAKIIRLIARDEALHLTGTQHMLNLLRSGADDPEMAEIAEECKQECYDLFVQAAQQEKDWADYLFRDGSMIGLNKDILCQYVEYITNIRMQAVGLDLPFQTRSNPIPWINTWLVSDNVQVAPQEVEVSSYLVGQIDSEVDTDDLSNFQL

For “class Ia RNR large subunit (from UniProt P00452)”, the Kd [1] is given as 200 nM.

In the case of “class Ia RNR large subunit (from UniProt P23921)”, the Kd [2] is listed as 200 nM.

B1: Bacillus subtilis holo-Fe^III2-Y· NrdF (β subunit, diferric-tyrosyl radical cofactor) (enzyme, UniProt P50621 1-329, looked up)
chain: MTKIYDAANWSKHEDDFTQMFYNQNVKQFWLPEEIALNGDLLTWKYLGKNEQDTYMKVLAGLTLLDTEQGNTGMPIVAEHVDGHQRKAVLNFMAMMENAVHAKSYSNIFMTLAPTETINEVFEWVKQNKYLQKKAQMIVGLYKAIQKDDEISLFKAMVASVYLESFLFYSGFYYPLYFYGQGKLMQSGEIINLILRDEAIHGVYVGLLAQEIYNKQTEEKKAELREFAIDLLNQLYENELEYTEDLYDQVGLSHDVKKFIRYNANKALMNLGFDPYFEEEDINPIVLNGLNTKTKSHDFFSMKGNGYKKATVEPLKDDDFYFEDEKEQI
modifications: tyrosyl radical (about 1 Y· per β2); Fe^III2 cofactor (about 4 Fe per β2)
With B1 the binding result [3] was “binds” and the “stoichiometry N” value (SEC) was 2.

B2: Bacillus subtilis holo-Mn^III2-Y· NrdF (β subunit, dimanganic-tyrosyl radical cofactor) (enzyme, UniProt P50621 1-329, looked up)
chain: MTKIYDAANWSKHEDDFTQMFYNQNVKQFWLPEEIALNGDLLTWKYLGKNEQDTYMKVLAGLTLLDTEQGNTGMPIVAEHVDGHQRKAVLNFMAMMENAVHAKSYSNIFMTLAPTETINEVFEWVKQNKYLQKKAQMIVGLYKAIQKDDEISLFKAMVASVYLESFLFYSGFYYPLYFYGQGKLMQSGEIINLILRDEAIHGVYVGLLAQEIYNKQTEEKKAELREFAIDLLNQLYENELEYTEDLYDQVGLSHDVKKFIRYNANKALMNLGFDPYFEEEDINPIVLNGLNTKTKSHDFFSMKGNGYKKATVEPLKDDDFYFEDEKEQI
modifications: tyrosyl radical (about 1 Y· per β2); Mn^III2 cofactor (about 4 Mn per β2)
With B2 the binding result [3] was “binds” and the “stoichiometry N” value (AUC) was 2.
